Results from publication PMC5923107 (2018).

B1: TRL848 (antibody, V domains shown)
VH: QVQLLESGGDVVQPGTSLRLSCAASGFSLWTSGMHWVRQAPGKGLEWVAVMSYDETKKYYADSVRGRFSISRDNSRNTLYLQMNSLRVEDTAVYFCAKPRLDYLDYFHAADSWGQGTLVSVSS
VL: DIVLTQPPSVSVAPGQTATITCGGNYIGSKSVNWYQQRPGHAPVLVVYDDSDRPSGIPDRFSGSNSRSTATTATLTISRVEAGDEADYYCQVWETSEDLWVFGGGTKLTVL
B2: TRL854 (antibody, V domains shown)
VH: QVQLVESGAEVKKPGASVRVSCKGSGYTFTAYHMHWVRQAPGQGFEWVGWINPNSGATYYTSTFEGRVTMTRDTSITTAYMELSSLRSDDTAVYYCATDIVVERDASLGGFNSYGMDVWGQGTTVTVSS
VL: DIEMTQSPLSLPVTPGEPASISCRSSQSLLHSNGYNHLAWYLQKPGRSPHLLIYLASTRASGVPDRFSGSGSGTDFTLKISRVEAEDVGIYYCMQSLQTSITFGQGTRLEIK
B3: TRL847 (antibody, V domains shown)
VH: QVQLVESGGGLVQPGGSLRLSCVASGFTFSRFSMNWVRQAPGMGLEWVSYISDTGRTIYYADSVKGRFTISRDNDKNTLYLQMKSLRDEDSAFYYCARDPDTPFVRAFDSWGQGVLVTVSS
VL: DIVMTQSPSFLSASVGDRVTITCRTSQVISSYLAWYQQRPGKAPKLLIYAASTLQSGVPSRFSGSGSGTRFSLTISNLQPEDFATYFCQQLTTYPPITFGQGTRLEIK

molecular target: biotinylated HA antigen of B/Florida/04/2006 (influenza B virus B/Florida/04/2006, biotin (site not stated)); experiment: BLI

Binder | Kd
B1 | 1.7 nM
B2 | 8.8 nM
B3 | 0.7 nM
